These binders were tested against purified MHC (MHC II molecules purified by affinity chromatography) (assay: competition with a radiolabelled known MHC binding peptide for purified MHC).

Binder	IC50
KLPYPQGRLPGPQPQ [P2g (SEQ ID NO: 43), modified alpha gliadin 15-mer peptide]	3.75 µM
PYPHPRLPYTQPQPF [P3c (SEQ ID NO: 46), modified alpha gliadin 15-mer peptide]	2.99 µM
PYSQPESPYMQPQPF [P3d (SEQ ID NO: 47), modified alpha gliadin 15-mer peptide]	1.99 µM
PYPHPWLRGPQPQPF [P3f (SEQ ID NO: 48), modified alpha gliadin 15-mer peptide]	0.879 µM
LQLQPFDQPRLPWPQ [P1f (SEQ ID NO: 37), modified alpha gliadin 15-mer peptide]	5.44 µM
LQLQPFWQPKLPGPQ [P1g (SEQ ID NO: 38), modified alpha gliadin 15-mer peptide]	11.2 µM
